Test system: MS2 coat protein
Experiment: apparent KD of MS2 coat protein; designed switch direction (-1 OFF switch, 1 ON switch): -1; higher = weaker reporter binding
In short: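 Each step of the titration lasted 0.8–1.5 h at the lowest concentration and 10–20 min at the highest. The protein, SNAP-549-labelled MS2 coat protein, went from 0.7 or 1.5 nM doubling to 3 µM over RNA switches transcribed on Illumina chips by stalled E. coli RNA polymerase. Normalised cluster fluorescence was curve-fitted, and the per-design median over clusters is given as apparent KD.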

[1] = Eterna round: R95, input ligand: FMN 200 uM
[2] = Eterna round: R95, input ligand: microRNA oligo, concentration not stated
[3] = Eterna round: R95, input ligand: none
[4] = input ligand: microRNA oligo, concentration not stated

Sequence	apparent KD of MS2 coat protein [1] [µM]	apparent KD of MS2 coat protein [2] [µM]	apparent KD of MS2 coat protein [3] [µM]	apparent KD of MS2 coat protein (input ligand: FMN 200 uM) [µM]	apparent KD of MS2 coat protein (input ligand: none) [µM]	apparent KD of MS2 coat protein [4] [µM]
AGUACUAACACGGAAGUGUUAGUACAAUAAGCUUGUGUUACAUGAGGAUCACCCAUGUCCUCAUAAGCUCGUCUUAU [Mat - Sensor v3 - Turn-off var 2 - D61] (puzzle: Sensor v3, turn-off variant 2)	0.113	0.0124	0.112			
CUUAGACAUGAGGAUCACCCAUGUGAGGAUAUGAUGCGAUCGUGCUGACAUGAUCGCAUCAGAAGGCACAUAUG [JL-ex1-01 Hyphema Mod2] (puzzle: Exclusion 1)		0.12				
GGUGAGAGCAAGGAUAUGCAGAAGAGAGAAAGAGCAGAAGGUGCUACAUGAGGAUCACCCAUGUUGGAUGUGUU [JR_E6_Sub014] (puzzle: Exclusion 6)	0.0463	0.0356	0.0393			
AAAUUAACUUAGGAUAUCGGCUGAAACAGCGUACGAGAAGGAAGUACAUGAGGAUCACCCAUGUGUCCCGUGCU [Teentibi] (Eterna round: R97, puzzle: Exclusion 6)				0.0686	0.0381	
GGCUAGUCAGGAUAUACGAACAUGUCAAAAGACGUGAAGGGACAUGAGGAUCACCCAUGUAGAAGGGACUAGCC [salish99_ex2_r3_004] (Eterna round: R96, puzzle: Exclusion 2)				0.181	0.0275	0.0219
AAUUAUUGAUGAGGAUAUUGUGGUGAAACACCACAAGAAGGCAUUAUACACAUGAGGAUCACCCAUGUGAGCCUGAUGCUUAUG [Ex NG1 #55] (Eterna round: R96, puzzle: Exclusion NG 1)						0.0127
AGGAUGUUAGGAUAUCGGAUAUGCUGGAGGAGGUGGAUUUACGAGAAGGAACAUGAGGAUCACCCAUGUUGGAG [JR_Exclu4_Sub047] (puzzle: Exclusion 4)		0.0209				
ACUCAACAGUAGGAUAUCAUCAAACUAUUGUGAUGAGAAGGACUGACAUGAGGAUCACCCAUGUUAACGUGAAG [Mod of Brourd 3 - Jieux - Exclusion 6] (Eterna round: R97, puzzle: Exclusion 6)				0.0418	0.0284	
AGUUCUAACACGAAAGUGUUAGUACAAUAAGCUUGUGAAACAUGAGGAUCACCCAUGUCCUCAUAAGCUCGUCUUAU [salish99_TOv2_r3_013] (puzzle: Sensor v3, turn-off variant 2)	0.0154	0.667	0.0147			
UAUUGCAAGUGAGGAUAUGACAUGAGGAUCACCCAUGUAAAGGGAGUUGACUAUAUAGCAAGAUAUCAGAAGGCACAACUGUAU [JR_ExcNG2_Sub004] (Eterna round: R96, puzzle: Exclusion NG 2)				0.309	0.131	0.114
UGUUGUUACGUAGGAUAUCCACCAACAGGUGGAAGGAUAUGGAAACAGAAGGUUCGCCAACAGGCGGAGAAGGACGUGUUAACU [pwkr exNG2 2xF7 2xFMN.23] (Eterna round: R96, puzzle: Exclusion NG 2)				0.00279	0.288	3.78
AGUGCAUGAGGAUAUGCAAAUCGAAAGACGCAAGGGCAAUCACAUGAGGAUCACCCAUGUAGAAGGCGUCGCAC [Eternabot (Original) Solution 17] (Eterna round: R97, puzzle: Exclusion 2)				0.0307	0.0319	
AAAACGUGAGGAUAUCCAAUAUAUGACAUGAGGAUCACCCAUGUUUCCACUCGUACCUCCGGAGAAGGCACAUUUU [Ex5 #79] (Eterna round: R97, puzzle: Exclusion 5)				0.0627	0.067	
AAAUAAAGCCUAGGAUAUCCGGACGAUAACCCAGGAGAAGGAGGAUGUCGAAGAAGACAUGAGGAUCACCCAUGUGCGUCCUCU [Ancegege] (Eterna round: R96, puzzle: Exclusion NG 1)				0.0103	0.0154	0.0106
GACUUCUGAGGAUAUACAUAGAUUUACAUGAGGAUCACCCAUGUUCCUCUAUGUAUAAAUGUAGAAGGCAGAAGAU [Mat - Exclusion 5 - JL Mod - D66] (Eterna round: R97, puzzle: Exclusion 5)				0.0738	0.0132	
AGCGCCAUCGUGAGAUGGCGUAUUACAUGAGGAUCACCCAUGUAGGAUAUCGAUUGCUUUGCAGUCGAGAAGGACAUGUCCUAG [JL ENG3 3.80 Mod F] (Eterna round: R96, puzzle: Exclusion NG 3)				0.0383	0.0279	0.0234
CAGUACUGAGGAUAUACAUGAGGAUCACCCAUGUUUUCCAGCUAGGAUACUAGCAAGUGUAGAAGGCAGUACUG [Mat - Exclusion 3 - Eli Mod - D6] (Eterna round: R97, puzzle: Exclusion 3)				0.273	0.0245	

Sequence	apparent KD of MS2 coat protein [1] [µM]	apparent KD of MS2 coat protein [2] [µM]	apparent KD of MS2 coat protein [3] [µM]	apparent KD of MS2 coat protein (input ligand: FMN 200 uM) [µM]	apparent KD of MS2 coat protein (input ligand: none) [µM]	apparent KD of MS2 coat protein [4] [µM]
GUUAUGUAAGGAUAUAUGAGUCACGGAAAUAAACCGUGAAGAUAGAAGGUACAUGAGGAUCACCCAUGUAAGGC [Mod of Anonveat 9 - Jieux - Exclusion 4] (Eterna round: R97, puzzle: Exclusion 4)				0.0167	0.014	
AAACAAGCUCGGGUGAGGGAGACCACAGAAGGACCCAAAACAUGAGGAUCACCCAUGUCAAGAGUAGAGCUUGGCAU [high scoring solution 31] (Eterna round: R96, puzzle: Sensor v2, turn-off variant 2)				0.071	0.0754	0.0574
AUCCUCUAGAAGGAUAUGCAGGUUGAAUAAACCGCAGAAGGUUUUACAUGAGGAUCACCCAUGUGUAUAACACA [Eternabot (L2) Solution 100] (Eterna round: R97, puzzle: Exclusion 6)				0.23	0.165	
AGCAAGCUUUAAAGAUCCUACAUGAGGAUCACCCAUGUGCUCGUCUUAUAACGUACUGUGACGAAAGUCACGGUACG [JL TOV1 3.33] (Eterna round: R97, puzzle: Sensor, turn-off variant 1)				0.357	0.603	
CAAGCUAUUGUAGCAACUAACAUGAGGAUCACCCAUGUAGGCAUAACUUACCUAGCUCGUUUAUACAAAUCAAUUGU [Eternabot (L2) Solution 11] (Eterna round: R97, puzzle: Sensor, turn-off variant 1)				0.0131	0.0176	
AAGUAUAGAGGAUAUAGUGAGUACUACAUGAGGAUCACCCAUGUUCUUCGAAACGUAUUUCUAGAAGGCUGAUAAA [EX-5 Malc#22] (puzzle: Exclusion 5)	0.0353	0.0282	0.0292			
CCUCUGUAAGGAUAUACGGAGACCACUGGAAUCAGUGGAAAGUAGAAGGUACAUGAGGAUCACCCAUGUGAGAA [Laveatisce] (Eterna round: R96, puzzle: Exclusion 4)						0.0679
CGCCUGGGAGGAUAUCCAAUAUAUGACAUGAGGAUCACCCAUGUUUCCACUCGUACCUCCGGAGAAGGCCCGGCGC [Ex5 #30] (Eterna round: R97, puzzle: Exclusion 5)				0.0231	0.0252	
CAUACAGUAGUCAGGAUAUUGGAAGAGACACGGAACGAGAAGGGACAUGAGGAUCACCCAUGUAUACUGUAAAG [EX-4 Malc #4] (Eterna round: R96, puzzle: Brourd's mod of Exclusion 4)				0.0223	0.0299	0.0255
GAUUAUGCGAGCUUUAGGGACAUGAGGAUCACCCAUGUUCGUCUUAUUGAUCUAGGUGCACUGACAUACCUAAAUCU [JMF 89] (puzzle: Sensor v3, turn-off variant 1)	0.0285	0.0379	0.0298			
AAUACUAACACGAAAGUGUUAGUACAAUAAGCUUGUGGUACAUGAGGAUCACCCAUGUCCUCAUAAGCUCGUCUUAU [Mat - Sensor v3 - Turn-off var 2 - D41] (puzzle: Sensor v3, turn-off variant 2)	0.0243	0.0745	0.0219			
UUAAUUAAUUAAGCGCAAGAUCACAUGAGGAUCACCCAUGUAUAGGAUAUCAGCUCGUGUAGAGCUGAGAAGGAUACAUAGCGC [ExNG3/2-A3] (Eterna round: R96, puzzle: Exclusion NG 3)				1.03	0.143	0.184
CUAAAUCAUGUAGGAUAUGCGUGGCAAAGCUAUGCAGAAGGACAUGAGGAUCACCCAUGUCAUUCCGUCUGGAAACAGACGGGA [Mat - Exclusion NG 1 - Mod of JL - D53] (Eterna round: R96, puzzle: Exclusion NG 1)				0.283	0.0228	0.0181
UUCCCGCGCGUGAGGAUAUGCUGAUCCCAGGAUUAGCAGAAGGCACAUGAGGAUCACCCAUGUCCAACUUGUCU [LRO-BmodExc4-14- Bluer = mod of Colors by Tatyana Zabanova] (Eterna round: R97, puzzle: Brourd's mod of Exclusion 4)				0.0385	0.0316	
UUAUUACAAGCAAGAUCCCACAUGAGGAUCACCCAUGUGCUCGUCUUAUAAGGUACAGUGACGAAAGUCACAGUACC [Sensor 3, v1 - 0] (puzzle: Sensor v3, turn-off variant 1)	0.0294	0.795	0.0223			
UGAUCAAAUGUCAGGAUAUGCUGUUGUAAUCAACAGCAGAAGGGACAUGAGGAUCACCCAUGUCUUGUCGAUUU [Magic-03] (puzzle: Brourd's mod of Exclusion 4)		0.0138				
